Laboratory results reported in US20080249606.

Key:
[1] = molecular target: endostatin, a recombinantly produced fragment of human collagen XVIII (EntreMed), P39060
[2] = molecular target: Gelofusin mixed with lipopolysaccharide (LPS)
[3] = molecular target: endostatin incubated overnight with DXS500k, P39060
[4] = molecular target: endostatin exposed to kaolin, P39060
[5] = molecular target: Gelofusin mixed with kaolin
[6] = molecular target: glycated haemoglobin (Hb-AGE), P69905
[7] = molecular target: BSA incubated overnight with dextran sulphate 500,000 Da (DXS500k), P02769
[8] = molecular target: BSA exposed to Ellagic acid, P02769
[9] = molecular target: Bovine serum albumin (BSA), P02769
[10] = molecular target: T1, endostatin exposed to Ellagic acid, P39060
T1 chain: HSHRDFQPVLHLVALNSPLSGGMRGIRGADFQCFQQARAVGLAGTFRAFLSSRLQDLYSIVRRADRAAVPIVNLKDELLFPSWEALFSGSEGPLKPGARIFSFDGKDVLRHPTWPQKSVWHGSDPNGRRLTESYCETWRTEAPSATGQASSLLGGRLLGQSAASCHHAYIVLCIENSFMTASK

[11] = molecular target: Gelofusin (Braun Melsungen AG)
[12] = molecular target: BSA exposed to kaolin, P02769
[13] = molecular target: lysozyme exposed to Microlance-3 injection needles, P00698
Sequence of lysozyme exposed to Microlance-3 injection needles, P00698 (P00698 19-147): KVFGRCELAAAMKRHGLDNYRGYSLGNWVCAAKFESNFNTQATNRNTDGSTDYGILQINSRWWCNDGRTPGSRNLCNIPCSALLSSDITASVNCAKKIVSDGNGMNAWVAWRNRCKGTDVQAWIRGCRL

Sequence of glycated haemoglobin (Hb-AGE), P69905 (P69905 2-142, chain 1 of 2): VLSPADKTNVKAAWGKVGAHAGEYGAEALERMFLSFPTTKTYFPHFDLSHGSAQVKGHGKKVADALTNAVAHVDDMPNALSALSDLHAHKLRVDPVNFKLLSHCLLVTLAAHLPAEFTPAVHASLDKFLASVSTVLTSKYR
Sequence of glycated haemoglobin (Hb-AGE), P69905 (chain, as listed by the source, chain 2 of 2): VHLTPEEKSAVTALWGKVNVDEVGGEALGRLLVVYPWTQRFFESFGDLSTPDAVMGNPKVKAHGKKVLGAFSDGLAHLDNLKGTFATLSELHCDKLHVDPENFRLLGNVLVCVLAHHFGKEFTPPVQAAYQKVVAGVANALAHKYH
Sequence of BSA exposed to kaolin, P02769 (P02769 25-607): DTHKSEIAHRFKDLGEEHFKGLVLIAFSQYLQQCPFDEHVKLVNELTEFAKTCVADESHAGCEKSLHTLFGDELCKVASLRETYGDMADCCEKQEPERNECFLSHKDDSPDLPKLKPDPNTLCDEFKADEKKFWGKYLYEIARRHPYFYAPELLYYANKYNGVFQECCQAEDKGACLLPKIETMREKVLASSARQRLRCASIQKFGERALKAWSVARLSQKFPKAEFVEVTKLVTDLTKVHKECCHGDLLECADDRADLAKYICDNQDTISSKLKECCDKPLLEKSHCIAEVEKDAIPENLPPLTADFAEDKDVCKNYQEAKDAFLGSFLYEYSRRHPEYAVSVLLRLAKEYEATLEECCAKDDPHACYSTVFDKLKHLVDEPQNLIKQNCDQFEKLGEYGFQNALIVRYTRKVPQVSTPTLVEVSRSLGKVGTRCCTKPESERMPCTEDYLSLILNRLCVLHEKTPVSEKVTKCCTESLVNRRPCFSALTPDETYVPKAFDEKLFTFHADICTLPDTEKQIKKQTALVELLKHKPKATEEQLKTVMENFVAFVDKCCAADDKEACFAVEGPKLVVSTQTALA
Sequence of BSA exposed to Ellagic acid, P02769 (P02769 25-607): as above
Sequence of BSA incubated overnight with dextran sulphate 500,000 Da (DXS500k), P02769 (P02769 25-607): as above
Sequence of Bovine serum albumin (BSA), P02769 (P02769 25-607): as above

B1: factor XII (FXII, Calbiochem 233490) (protein)
chain: IPPWEAPKEHKYKAEEHTVVLTVTGEPCHFPFQYHRQLYHKCTHKGRPGPQPWCATTPNFDQDQRWGYCLEPKKVKDHCSKHSPCQKGGTCVNMPSGPHCLCPQHLTGNHCQKEKCFEPQLLRFFHKNEIWYRTEQAAVARCQCKGPDAHCQRLASQACRTNPCLHGGRCLEVEGHRLCHCPVGYTGAFCDVDTKASCYDGRGLSYRGLARTTLSGAPCQPWASEATYRNVTAEQARNWGLGGHAFCRNPDNDIRPWCFVLNRDRLSWEYCDLAQCQTPTQAAPPTPVSPRLHVPLMPAQPAPPKPQPTTRTPPQSQTPGALPAKREQPPSLTRNGPLSCGQRLRKSLSSMTRVVGGLVALRGAHPYIAALYWGHSFCAGSLIAPCWVLTAAHCLQDRPAPEDLTVVLGQERRNHSCEPCQTLAVRSYRLHEAFSPVSYQHDLALLRLQEDADGSCALLSPYVQPVCLPSGAARPSETTLCQVAGWGHQFEGAEEYASFLQEAQVPFLSLERCSAPDVHGSSILPGMLCAGFLEGGTDACQGDSGGPLVCEDQAAERRLTLQGIISWGSGCGDRNKPGVYTDVAYYLAWIREHTVS
FXII activation (conversion of Chromozym-PK by kallikrein) [1]: Neither BSA or endostatin alone, nor kaolin or DXS500k alone are efficient activators of FXII
chromogenic factor XII/prekallikrein activation assay with active enzyme kallikrein read-out [2]: enhanced activity is seen when Gelofusin is mixed with kaolin or LPS
FXII activation (conversion of Chromozym-PK by kallikrein) [3]: combinations of surface and protein cofactor results in FXII and subsequent prekallikrein activity
FXII activation (conversion of Chromozym-PK by kallikrein) [4]: combinations of surface and protein cofactor results in FXII and subsequent prekallikrein activity
chromogenic factor XII/prekallikrein activation assay with active enzyme kallikrein read-out [5]: enhanced activity is seen when Gelofusin is mixed with kaolin or LPS
FXII activation [6]: Presence of cross-β structure conformation in Hb-AGE was conformed by tPA binding, tPA activation, FXII activation
FXII activation (conversion of Chromozym-PK by kallikrein) [7]: combinations of surface and protein cofactor results in FXII and subsequent prekallikrein activity
chromogenic factor XII/prekallikrein activation assay [8]: exposure of the proteins to the polyphenol surface induces increased capacity to activate factor XII/prekallikrein
FXII activation (conversion of Chromozym-PK by kallikrein) [9]: Neither BSA or endostatin alone, nor kaolin or DXS500k alone are efficient activators of FXII
chromogenic factor XII/prekallikrein activation assay [10]: exposure of the proteins to the polyphenol surface induces increased capacity to activate factor XII/prekallikrein
chromogenic factor XII/prekallikrein activation assay with active enzyme kallikrein read-out [11]: Gelofusin alone does not stimulate factor XII/prekalikrein activation
FXII activation (conversion of Chromozym-PK by kallikrein) [12]: combinations of surface and protein cofactor results in FXII and subsequent prekallikrein activity

B2: tissue-type plasminogen activator (tPA, Actilyse, Boehringer-Ingelheim) (protein)
chain: SYQVICRDEKTQMIYQQHQSWLRPVLRSNRVEYCWCNSGRAQCHSVPVKSCSEPRCFNGGTCQQALYFSDFVCQCPEGFAGKCCEIDTRATCYEDQGISYRGTWSTAESGAECTNWNSSALAQKPYSGRRPDAIRLGLGNHNYCRNPDRDSKPWCYVFKAGKYSSEFCSTPACSEGNSDCYFGNGSAYRGTHSLTESGASCLPWNSMILIGKVYTAQNPSAQALGLGKHNYCRNPDGDAKPWCHVLKNRRLTWEYCDVPSCSTCGLRQYSQPQFRIKGGLFADIASHPWQAAIFAKHRRSPGERFLCGGILISSCWILSAAHCFQERFPPHHLTVILGRTYRVVPGEEEQKFEVEKYIVHKEFDDDTYDNDIALLQLKSDSSRCAQESSVVRTVCLPPADLQLPDWTECELSGYGKHEALSPFYSERLKEAHVRLYPSSRCTSQHLLNRTVTDNMLCAGDTRSGGPQANLHDACQGDSGGPLVCLNDGRMTLVGIISWGLGCGQKDVPGVYTKVTNYLDWIRDNMRP
Plg-activation assay (plasmin substrate S-2251) [13]: When the plasma protein lysozyme is exposed to the stainless steel of a Microlance-3 injection needle, tPA activating properties are induced
